The nanobody polyreactivity screen of Harvey et al. (2022)

Assay: yeast display, Sf9 membrane polyspecificity reagent, FACS + sequencing; frameworks hold sequencing errors
In short: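 Nanobodies came from a synthetic yeast display library in Saccharomyces cerevisiae BJ5465, induced with galactose for 36–48 hours and stained for 1 hour at 4 °C with 10% biotinylated, detergent-solubilized Sf9 membrane reagent. Cells were enriched on streptavidin microbeads and then FACS-sorted, with low and high (top ~1%) gates set on anti-HA fluorescence for expression and streptavidin fluorescence for reagent binding. Each polyreactivity label reflects the gate a clone came from. Genes were amplified by colony PCR, sequenced by MiSeq 2 × 250 and filtered by CDR length.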

Sequence	polyreactivity (PSR sort gate)
QVQLVESGGGLVQAGGSLRLSCAASGITSSYAMGWYRQAPGKERELVAAISRGGSTYYADSVKGRFTISRDNAKNTVYLQMNSLKPEDTAVYYCNKRRYPYGWGQGTQVTVSS	high polyreactivity
QVQLVESGGGLVQAGGSLRLSCAASGITSTYYAMGWYRQAPGKERELVAAISVSGGSTYYADSVKGRFTISRDNAKNTVYLQMNSLKPEDTAVYYCTADSYHTYYYWYDYWGQGTQVTVSS	low polyreactivity
QVQLVESGGGLVQAGGSLRLSCAASGITVKLYPMGWYRQAPGKETELVATINRGSSTYYADSVKGRFTISRDNAKNTVYLLMNSLKPEDTAVYYCAARLIGAGLLIYDYWGQGTQVTVSS	high polyreactivity
QVQLVESGGGLVQAGGSLRLSCAASGITVRLYAMGWYRQAPGKERELVATIDWSGDSTYYADSVKGRFTISRDNAKNTVYLQMHSLKPEDTAVYYCNAVYVPVGINLGEYDYWGQGTQVTVSS	low polyreactivity
QVQLVESGGGLVQAGGSLRLSCAASGITYRGYAMGWYRQAPGKERELVAAISSGGSTSYADSLKGRFTISRDNAKNTVYLQMNSLKPEDTAVYYCAKDDERKQGQYPPYDSWGQGTQVTVSS	low polyreactivity
QVQLVESGGGLVQAGGSLRLSCAASGITYRPYAMGWYRQTPGKERELVASISRGGSTYYADSVKGRFTISRDNAKNTVYLQMNSLKPEDTAVYYCAAYFAWRYDYWGQGTQVTVSS	high polyreactivity
QVQLVESGGGLVQAGGSLRLSCAASGITYSYNAMGWSRQAPGKERELVAAISSNSDSTYFADSVMGRFTISRDNAKNTVYLQMNSLKPEDTAVYYCAADTPDAAVYSGFYYWGQGTQVTVSS	low polyreactivity
QVQLVESGGGLVQAGGSLRLSCAASGIYAYVMGWYRQAPGTERELVAAISGTGGRTYYADSVKGRFTISRDNAKNTVYLQMNSLKPEDTAVYYCAARVKYTRYQSILDYYYWGQGTQVTVSS	high polyreactivity
QVQLVESGGGLVQAGGSLRLSCAASGIYINAMGWYRQAPGKERELVAAISRGGSTYYADSVKGRFTISRDNAKNTVYLQMNSLKPEDTAVYYCAKLIGRWRLYHTFVKGDYWGQGTQVTVSS	high polyreactivity
QVQLVESGGGLVQAGGSLRLSCAASGKPMGWYRQAPGKERELVAAITYGGTTTYYADSVKGRFTISRDNAKNTVYLQMNSQKPEDTAVYYCAADYVFVATPLRYDYWGQGTQVTVSS	low polyreactivity
QVQLVESGGGLVQAGGSLRLSCAASGKTFVTYAMGWYRQAPGKERELVATISSSGGSTYYADSVKGRFTISRDNAKNTVYLQMNSLKPEDTAVYYCAKQAWAYALYTNFYSGDYGYWGQGTQVTVSS	low polyreactivity
QVQLVESGGGLVQAGGSLRLSCAASGLFARNAMGWYRQAPGKERELVAAINRSGGSTYYADSVKGRFTISRDNAKNTVYLQMNSLKPEDTAVYYCNKAFTHTKYLSPIAYEYGYWGQGTQVTVSS	low polyreactivity
QVQLVESGGGLVQAGGSLRLSCAASGLIFADYTMGWYRQAPGKERELVAVITDGDSTYYADSVKGRFTISRDNAKNTVYLQMNSLKPEDTAVYYCAAELDGSNYTLDYWGLGTQVTVSS	low polyreactivity
QVQLVESGGGLVQAGGSLRLSCAASGLIFAGYSMGWYRLAPGKERELVAAITWRGGRTYADSVKGRFTISRDNAKNTVYLQMNSLKPEDTAVYYCAVRRWGTSFVEDDYWGQGTQVTVSS	low polyreactivity
QVQLVESGGGLVQAGGSLRLSCAASGLIFAPYAMGLYRQAPGKERELVAAISFRGGSTYYADSVKGRFTISRDNAKNTVYFQMNSLKPEDTAVYYSAADWLYDYGEYYYWGQGTQVTVSS	high polyreactivity
QVQLVESGGGLVQAGGSLRLSCAASGLIFARNALGWYRQAPGKERELVAAISWRSGRTYYADSVKGRFTISRDNAKNTVYLQMNSLKPEDTAVYYCAATSRTSWYGYWGQGTQVTVSS	high polyreactivity
QVQLVESGGGLVQAGGSLRLSCAASGLIFARNAMGWYRQSPGKERELVAAITRGGSTYYADSVKGRFTISRDNAKNTVYLQMNSLKPEDTAVYYCNADYAYNSYGYRFYYWGQGTQVTVSS	high polyreactivity
QVQLVESGGGLVQAGGSLRLSCAASGLIFAVYAMGWYRQAPGKERELVAGISASAASTYYADSVKGRFTISRDNAKNTVYLQMNSLKPEDTAVYYCVAVLPARGYYWGQGTQVTVSS	high polyreactivity
QVQLVESGGGLVQAGGSLRLSCAASGLIFDDYAMGWYRQAPGKERELVAAISWSDGTTYYADSVKGRFTISRDNAKNTVYLQMNSLKPEDTAVYYCAAEEVSGWEYDYWGQGTQVTVSS	high polyreactivity
QVQLVESGGGLVQAGGSLRLSCAASGLIFDGYAMGWYRQAPGKERELVAAISRSGSRTYYADSVKGRFTISRDNAKNTVYLQMNSLKPEDTAVYYCAADAYNYPELDYWGQGTQVTVSS	high polyreactivity
QVQLVESGGGLVQAGGSLRLSCAASGLIFDKYAMGWYRQAPGKERELVAAITRSSGTTYYADSVKGRFTISRDNAKNTVYLQMNSLKPEETAVYYCAARFIWGYWGVGSYYWGQATQVTVSS	low polyreactivity
QVQLVESGGGLVQAGGSLRLSCAASGLIFDRSAMGWYRPAPGKERELDAASRWTGASSTYYADSVKGRFTISRDNAKNTVYLQMNSLKPEDTAVYYCNADSPYSFATGPYVLDSDYWGQGTQVTVSS	low polyreactivity

Sequence	polyreactivity (PSR sort gate)
QVQLVESGGGLVQAGGSLRLSCAASGLIFDVNTMGWYRQAPGKERELVAAITGSGGRTYYADSVKGRFTISRDNGKNTVYLQMNSLKPEDTAFYYCNADTSYVGFDYWGQGTQVTVSS	low polyreactivity
QVQLVESGGGLVQAGGSLRLSCAASGLIFDVYAMGWYRQAPGKERELVAVISRGGSTNYADSVKGRFTISRDNANNTVYLQMNSLKPEDTAVYYCAAGLVVSYPQNNYSVSFYARGYWGQGTQVTVSS	high polyreactivity
QVQLVESGGGLVQAGGSLRLSCAASGLIFDYYGMGWYRQAPGKEREFVAAINRSGGTTYYADSVKGRFTISRDNAKNTVYLQMNSLKPEDTAVYYCNADRGPAKLVYDPVIMDYWGQGTQVTVSS	low polyreactivity
QVQLVESGGGLVQAGGSLRLSCAASGLIFEVNVMGWYRQAPGTERELVAAITTGGGSTYYADSVKGRFTISRDNAKNTVYLQMNSLKPEDTAVYYCATDYSSYLYDYYTGVGGYEYWGQGTQVTVSS	low polyreactivity
QVQLVESGGGLVQAGGSLRLSCAASGLIFFSYAMGWYRQAPGKERELVAAISRRGGRTYYADSVKGRFTISRDNAKNTVYLQMNSLKPEDTAVYYCAADSGYVWYADDYWGQGTQVTVSS	low polyreactivity
QVQLVESGGGLVQAGGSLRLSCAASGLIFGGYAMGWYRQAPGKERELVAAISSSGGRTYYADSVKGRFTISRDNAKNTVYLQMNSLKPEDTAVYYCATRVHYRNDYWGQGTQVTVSS	high polyreactivity
QVQLVESGGGLVQAGGSLRLSCAASGLIFGKNAMGWYRQAPGKERELVAAISSGDSTYADSVKGRFTISRDNAKNTVYLQMNSLKPEDTAVYYCNAEVLRESYDRHPTTDYYWGQGTQVTVSS	low polyreactivity
QVQLVESGGGLVQAGGSLRLSCAASGLIFGPNAMGWYRQAPGKERELVAAITKSGDSTYYADSVKGRFTISRDNAKNTVYFQMNSLKPEDTAVYYCAADTTTGLYDYWGQGTQVTVSS	low polyreactivity
QVQLVESGGGLVQAGGSLRLSCAASGLIFGPYAMGWYRQAPGKERELLAASWRGGSTYYADSVKGRFTISRDNAKNTVFLQMNSLKPEDTAVYYCAADVIYSLYYYWGQGTQVTVSS	low polyreactivity
QVQLVESGGGLVQAGGSLRLSCAASGLIFGPYAMGWYRQAPGKERELVAAITSSGGSTYYADSVKGRFTISRDNAKNTVYLQMNSLKPEDTAVYSCAARGSPRYYARYNYWGQGTQVTVSS	low polyreactivity
QVQLVESGGGLVQAGGSLRLSCAASGLIFGRNVMGWYRQAPGKERELVAAISWSGGRTYYADSVKGRFTISRDNAKNTVYLQMNSLKPEDTAVYYCAADDGPGFDYWGQGTQVTVSS	high polyreactivity
QVQLVESGGGLVQAGGSLRLSCAASGLIFGSYAMGWYRQAPGKERELVAASSRSGGSTYYADSVKGRFTISRDKAKNSVYLQMISLKPEDTAVYYFAADDYSSEYDYWGQGTQVTVSS	high polyreactivity
QVQLVESGGGLVQAGGSLRLSCAASGLIFGTKAMGCYRQAPGKERELVAAMSGSGGRTYYADSVKARFTISRDNAKNTVYLQMNSLKPEDTAVYYCASRFWRLHVGYGYSGQGTQVTVSS	high polyreactivity
QVQLVESGGGLVQAGGSLRLSCAASGLIFGTYAMGWYRQAPGKERELVATITRGGGSTYYADSVKGRFTISRDNAKNTVYLQMNSLKPEDTAVYDCAKTYFYGVRRFNYWGQGTQVTVSS	high polyreactivity
QVQLVESGGGLVQAGGSLRLSCAASGLIFGWNAMGGYRQAPGKERELVAAINSGGITNYADSVKGRFTISRDNAKNTVYLQMYSLKPDDTEVYYCAADVVQYGLDWYGEEYESWGQGTQVTVSS	low polyreactivity
QVQLVESGGGLVQAGGSLRLSCAASGLIFGWYAMGWYRQAPGKERELVAGISGSGGITYYADSVKGRFTISRDNAKNTVYLQMNSLKPEDTAVYYCNARYPRYYRGVIQYDFWGQGTQVTVSS	low polyreactivity
QVQLVESGGGLVQAGGSLRLSCAASGLIFHQYAMGWYRQAPGKERELVAAITRSGTRTYYADSVKGRFTISRDNAKNTVYLQMNSLKPEDTAVYYCAAADTQGVSMDYWGQGTQVTVSS	high polyreactivity
QVQLVESGGGLVQAGGSLRLSCAASGLIFIAYAMGWYRQATGKERELVAAISSSGGSTYYADSVKGRFTISRDNAKNTVYLQMTSLKREDTAVYYCAADRYAWGTGRYGYWGQGTQVTVSS	low polyreactivity
QVQLVESGGGLVQAGGSLRLSCAASGLIFIIYTRGWSRQAPGKERELVAAITRRGGITYYADSVKGRFTISRDNAKNTVYLQMNSLKPEDTAVYYCAVVRPYNIWYDYWGQGTQVTVSS	low polyreactivity
QVQLVESGGGLVQAGGSLRLSCAASGLIFITYAMGWYRQAPGKERELVATITLRGGSTYYADSVKGRFTISRDNAKNTVYLQMNSLKPEDTAVYYCAADVGYWGRSSGYPSDDYDYWGQGTQVTVSS	low polyreactivity
QVQLVESGGGLVQAGGSLRLSCAASGLIFIVYAMGWSRQAPGKERELVAAISWSGGSTYYADSVKGRFTISRDNAKNTVYLQMNSLKPEDTAVYYCAAPSSVRGKVISADYGYWGQGTQVTVSS	high polyreactivity
